From the RNAGym collection of RNA variant scans (doi:10.1021/acssynbio.7b00057)

B1: Pistol ribozyme (parent)
chain: GGGUCGUUGUUCCAUAAUCGCGUGGAUAUGGCACGCAAGUUUCUACCGGGCACCGUAAAUGUCCGACUGGAGCCGUUCGGGCGGCUAUAAACAGACCUCAGGCCCGAAGCGUGGCGGCACCUGCCGCCGGUGGUAAAAAAGAUCGGAAGAGCACACGUCU

Variants of: B1
Assay: aptazyme ON/OFF ratio, guanine; higher = stronger switching; co-transcriptional cleavage with and without guanine

Compared with U7G U8G G9C U11G C13U, U8C U10A U11G C12G is lower in “aptazyme ON/OFF ratio” value: 1.49 for the first, 1.31 for the second.

Compared with U7C U8G G9C U10G U11C C13G, U7G U8G C12U is higher in “aptazyme ON/OFF ratio” value: 1.05 for the first, 1.21 for the second.

Compared with U7A U8A G9U U10G C13G, U8C G9A U10A U11C C12G is higher in “aptazyme ON/OFF ratio” value: 1.21 for the first, 1.29 for the second.

Going from U7G U8A G9C U10C U11C C12G C13U to U7G G9A U10C U11G C12G C13A, the “aptazyme ON/OFF ratio” value rises from 1.03 to 1.09.

Compared with U8C U11G C12A C13U, U7C U8G U11A C12A C13G is lower in “aptazyme ON/OFF ratio” value: 1.16 for the first, 1.07 for the second.

Compared with G9C U10A U11C C12U C13G, U7G U11A C12G is higher in “aptazyme ON/OFF ratio” value: 1.12 for the first, 1.18 for the second.

Going from U7C U8G U10A U11C C12U C13U to U7G U8A G9U C12G C13G, the “aptazyme ON/OFF ratio” value rises from 1.06 to 1.07.

Going from U8G G9U U10G U11A C12U C13U to U7C U8G G9C U10G U11A C12G C13A, the “aptazyme ON/OFF ratio” value rises from 1.06 to 1.24.

Compared with U7G U10A U11G C12U C13A, U8A U11A C13A is higher in “aptazyme ON/OFF ratio” value: 1.17 for the first, 1.19 for the second.

Going from U7A G9C U10A U11G C12A C13G to U7C U8C G9U U11C C12U C13U, the “aptazyme ON/OFF ratio” value falls from 1.07 to 1.02.

Compared with U7C U8A C13G, U7G U8C G9U U10A U11G C12A C13A is lower in “aptazyme ON/OFF ratio” value: 1.11 for the first, 1.1 for the second.

Compared with U8G U10G U11G C13G, U8G G9U U10G U11C C13G is lower in “aptazyme ON/OFF ratio” value: 1.25 for the first, 1.04 for the second.

First: U8C G9A U10C C12G C13A
Second: U7A U8C U10G C12U
The “aptazyme ON/OFF ratio” value of the first is lower: 1.18 for the first, 1.27 for the second.

Compared with U7C U8G U10A C12G C13G, U7A U8A G9C C13G is lower in “aptazyme ON/OFF ratio” value: 1.1 for the first, 1.03 for the second.

Compared with U7A U8G U10C U11G C12G, U8G G9A C12G is lower in “aptazyme ON/OFF ratio” value: 1.33 for the first, 1.16 for the second.

First: U7A G9U C12G C13U
Second: U7C U8G U10G U11G C12U C13U
The “aptazyme ON/OFF ratio” value of the first is lower: 1.3 for the first, 1.4 for the second.

First: U8G G9A U11C C12G C13G
Second: U7C U8A G9A U10G U11G C12U C13U
The “aptazyme ON/OFF ratio” value of the first is lower: 1.18 for the first, 1.2 for the second.

Compared with U7A U8G G9C U10C U11G C13A, U7A U8C G9A U10C U11G C12A is lower in “aptazyme ON/OFF ratio” value: 1.25 for the first, 1.09 for the second.

First: U7C U8A U10G U11A C13U
Second: U7G U8A G9U U10A U11A C13A
The “aptazyme ON/OFF ratio” value of the first is lower: 1.07 for the first, 1.13 for the second.

First: U7A U8C U10A U11A C12G
Second: U8G U11A C12U C13G
The “aptazyme ON/OFF ratio” value of the first is higher: 1.23 for the first, 1.12 for the second.

Going from U8A G9U U10G U11G C12U C13G to U7C G9A U10G U11G C13U, the “aptazyme ON/OFF ratio” value falls from 1.21 to 1.17.

Compared with U7G U8C G9C U10G C12G C13G, U7C G9U U10G U11G C12A C13G is higher in “aptazyme ON/OFF ratio” value: 1.07 for the first, 1.1 for the second.

First: U7G U8A U10C C12U C13U
Second: U7C U8G G9C U10A U11G C12G
The “aptazyme ON/OFF ratio” value of the first is higher: 1.32 for the first, 1.26 for the second.

Going from U7G U8C G9C U11C C12A C13U to G9C U11G C12A C13A, the “aptazyme ON/OFF ratio” value falls from 1.53 to 1.14.

Compared with U7A U8C G9U U10G U11C C13G, U8A G9U U10A U11C C12A C13A is higher in “aptazyme ON/OFF ratio” value: 1.08 for the first, 1.23 for the second.

Compared with U7C G9A U10C C12G C13A, U7G G9A U11G C12A C13G is lower in “aptazyme ON/OFF ratio” value: 1.26 for the first, 1.07 for the second.

First: U7A G9C U10A U11A C12U C13A
Second: U7A U8A G9C U10C U11C C12G C13G
The “aptazyme ON/OFF ratio” value of the first is higher: 1.13 for the first, 1.04 for the second.

Compared with U7A U8C G9C U11C C12U C13G, U7A G9C U10A C12G C13G is higher in “aptazyme ON/OFF ratio” value: 1.09 for the first, 1.14 for the second.

Going from U7C U8A G9A U10A C12G C13A to U11C C12G, the “aptazyme ON/OFF ratio” value rises from 1.23 to 1.55.

First: U7G U8G G9C U11A C12G C13A
Second: U7C G9C U10G U11A C12U
The “aptazyme ON/OFF ratio” value of the first is lower: 1.12 for the first, 1.15 for the second.

Compared with U7G U10C C12A C13U, U7C G9U U10A C12A is higher in “aptazyme ON/OFF ratio” value: 1.12 for the first, 1.82 for the second.

Compared with U7A U8G U10A U11A C12U, U7G U8A G9U U10G U11G C12A C13G is lower in “aptazyme ON/OFF ratio” value: 1.38 for the first, 1.09 for the second.

Going from U7C U10C C13G to U7G U8G U10A U11C C12A C13G, the “aptazyme ON/OFF ratio” value falls from 1.28 to 1.23.

Compared with U7C G9C U11A C12G C13U, U7G U8A U10C C12U is higher in “aptazyme ON/OFF ratio” value: 1.14 for the first, 2.18 for the second.

Going from U7G G9C U11A C12G C13A to U7G U8G G9C U10G C12G C13A, the “aptazyme ON/OFF ratio” value falls from 1.2 to 1.11.

Going from U7G U8G G9U U10C C12A C13A to U7A U8G G9U U10A C12A, the “aptazyme ON/OFF ratio” value rises from 1.31 to 1.45.

Compared with U7C U8C G9A U10A U11G C12G, U7G U8C G9A U10C U11A C12A C13G is lower in “aptazyme ON/OFF ratio” value: 1.25 for the first, 1.11 for the second.

Compared with U7C U8A G9U U10A U11A C12U, U7G U8C U10C C12U C13G is higher in “aptazyme ON/OFF ratio” value: 1.14 for the first, 1.19 for the second.

First: U7C U8G G9C U10A U11G C12A
Second: U8G G9U U10C U11A C12A C13A
The “aptazyme ON/OFF ratio” value of the first is lower: 1.05 for the first, 1.07 for the second.

Going from U7A U10C U11A C12G to U7G U8C G9A U11A C12G C13A, the “aptazyme ON/OFF ratio” value falls from 1.26 to 1.05.

First: U7C U10G U11A C12G C13U
Second: U7G U8C U11C C12U C13A
The “aptazyme ON/OFF ratio” value of the first is lower: 1.22 for the first, 1.34 for the second.

For U7G U10A U11A C12U C13A, the “aptazyme ON/OFF ratio” value was 1.09.
